According to paper doi:10.1101/2020.10.05.326918 (bioRxiv, 2020):

B1: MED24 (natural protein, Mus musculus (endogenous in CH12 cells), UniProt Q99K74 1-987, looked up)
chain: MKVVNLKQAILQAWKERWSDYQWAINMKKFFPKGATWDILNLAEALLEQAMIGPSPNPLILSYLKYAISSQMVSCSSVLTAISKFDDFSRDLCVQALLDIMDMFCDRLSCHGKAEECIGLCRALLSALHWLLRCTAASAERLQEGLEAGTPAPGEKQLALCLQCLEKTLSSTKNRALLHIAKLEEASSWTAIEHSLLKLGEILANLSNPQLRSQAERCGTLIRSIPSMLSVHSEQLHKTGFPTIHALILLEGTMNLTGEMQPLVEQLMMVKRMQHIPTPLFVLEIWKACFVGLIESPEGTQELKWTAFTYLKIPQVLVKLKKYFHGEKDFTEDVNCAFEFLLKLTPLLDKADQRCNCDCTNFLLQECNKQGLLSEVNFASLVGKRTADRDPQLKSSENANIQPNPGLILRAEPTVTNILKTMDADHSKSPEGLLGVLGHMLSGKSLDLLLAAAAATGKLKSFARKFINLNEFTTHGSGESTKTASVRALLFDISFLMLCHVAQTYGSEVILSESSSGEEVPFFETWMQTCMPEEGKILNPDHPCFRPDSTKVESLVALLNNSSEMKLVQMKWHEACLSISAAILEILNAWENGVLAFESIQKITDNIKGKVCSLAVCAVAWLVAHVRMLGLDEREKSLQMIRQLAGPLYSENTLQFYNERVVIMNSILEHMCADVLQQTATQIKFPSTGVDTMPYWNLLPPKRPIKEVLTDIFAKVLEKGWVDSRSIHILDTLLHMGGVYWFCNNLIKELLKETRKEHTLRAVQLLYSIFCLDMQQVTLVLLGHILPGLLTDSSKWHSLMDPPGTALAKLAVWCALSSYSSHKGQASSRQKKRHREDIEDYVSLFPVEDMQPSKLMRLLSSSDDDANILSSPTDRSMNSSLSASQLHTVNMRDPLNRVLANLFLLISSILGSRTAGPHTQFVQWFMEECVGCLEQDSRGSILQFMPFTTVSELVKVSAMSSPKVVLAITDLSLPLGRQVAAKAIAAL
B2: MED16 (natural protein, Mus musculus (endogenous in CH12 cells), UniProt Q6PGF3 1-828, looked up)
chain: MDLAYVCEWEKWAKSTYCPSLPLACAWSCRNLIAFTTDLRNDDQDLTHMIHILDTEHPWEVHSVSSGHSEAITCLEWDQSGSRLLSADADGQIKCWSMADHLANSWESSVGSQVEGDPIVALSWLHNGVKLALHVEKSGASSFGEKFSRVKFSPSLTLFGGKPMEGWIAVTVSGLVTVSLLKPSGQVLTSTESLCRLRGRVALADIAFTGGGNIVVAAADGSSASPVKFYKVCVSVVSEKCRIDTEILPSLFMRCTTDPNRKDRFPAITHLKFLARDMSEQVLLCASSQTSSLVECWSLRKEGLPVNNIFQQISPVVGDKQPMILKWRILSATNDLDRVSAVALPKLPISLTNTDLKVASDTQFYPGLGLALAFQDGSVHMVHRLSLQTMAVFYSSAPRSLDEPALKRPRTTCPAVHFKAMQLSWTSLALVGIDNHGKLSMLRISPSLGHPLEPKLALQHLLFLLEYCMVTGYDWWDILLHVQPGMVQSLVERLHEEYTRQKPALQQVLSTRILAMKASLCKLSPCTVARVCDYHTKLFLMAITSTLKSLLRPHFLNTPDKSPGDRLAEICAKITDVDIDKVMINLKTEEFVLDMNTLQALQQLLQWVGDFVLYLLVSLPNQGSPLRPGHSFLRDGTSLGMLRELMVVIRIWGLLKPSCLPVYTATSDTQDSMSLLFRLLTKLWICCRDEGAASEPDEGLVDECCLLPSQLLVPNLDWLPASDGLVSRLQPKQPLRLRFGRAPTLPSSTSTLQLDGLTRAPGQPKIDHLRRLHLGAYPTEECKACTRCGCVTMLKSPNKTTAVTQWEQRWIKNCLCGGLWRRVPLSCS
B3: MED20 (natural protein, Mus musculus (endogenous in CH12 cells), UniProt Q9R0X0 1-212, looked up)
chain: MGVTCVSQMPVAEGKSLQQTVELLTKKLEMLGAEKQGTFCVDCETYHTAASTLGSQGQAGKLMYVMHNSEYPLSCFALFENGPCLIADTNFDVLMVKLKGFFQSAKASKIETRGTRYQYCDFLVKVGTVTMGPSARGISVEVEYGPCVVASDCWSLLLEFLQSFLGSHAPGAPTVFGNRHDAVYGPADTMIQYMELFNKIRKQQQVPVAGIR
B4: MED4 (natural protein, Mus musculus (endogenous in CH12 cells), UniProt Q9CQA5 1-270, looked up)
chain: MAASSSGEKEKERMGGVSGMAGLGSTRERLLSALEDLEVLSRELIEMLAISRNQKLLQLEEENQVLELLIHRDGDFQELMKLALNQGKVHHEMQALEKEVEKRDSDIQQLQKQLKEAEQILATAVYQAKEKLKSIEKARKGAISSEEIIKYAHRISASNAVCAPLTWVPGDPRRPYPTDLEMRSGLLGQMNNPSTSGVNGHLPGDALAAGRLPDVLAPQYPWQSNDMSVNMLPPNHSSDFLLEPPGHNKENEDDVEVMSTDSSSSSSDSD

Assays:
Experiment in all cases: cryo-EM structure
[1] = biological target: MED1 (Mus musculus (endogenous in CH12 cells), UniProt Q925J9 1-1575)
Chain of MED1 (Q925J9 whole entry): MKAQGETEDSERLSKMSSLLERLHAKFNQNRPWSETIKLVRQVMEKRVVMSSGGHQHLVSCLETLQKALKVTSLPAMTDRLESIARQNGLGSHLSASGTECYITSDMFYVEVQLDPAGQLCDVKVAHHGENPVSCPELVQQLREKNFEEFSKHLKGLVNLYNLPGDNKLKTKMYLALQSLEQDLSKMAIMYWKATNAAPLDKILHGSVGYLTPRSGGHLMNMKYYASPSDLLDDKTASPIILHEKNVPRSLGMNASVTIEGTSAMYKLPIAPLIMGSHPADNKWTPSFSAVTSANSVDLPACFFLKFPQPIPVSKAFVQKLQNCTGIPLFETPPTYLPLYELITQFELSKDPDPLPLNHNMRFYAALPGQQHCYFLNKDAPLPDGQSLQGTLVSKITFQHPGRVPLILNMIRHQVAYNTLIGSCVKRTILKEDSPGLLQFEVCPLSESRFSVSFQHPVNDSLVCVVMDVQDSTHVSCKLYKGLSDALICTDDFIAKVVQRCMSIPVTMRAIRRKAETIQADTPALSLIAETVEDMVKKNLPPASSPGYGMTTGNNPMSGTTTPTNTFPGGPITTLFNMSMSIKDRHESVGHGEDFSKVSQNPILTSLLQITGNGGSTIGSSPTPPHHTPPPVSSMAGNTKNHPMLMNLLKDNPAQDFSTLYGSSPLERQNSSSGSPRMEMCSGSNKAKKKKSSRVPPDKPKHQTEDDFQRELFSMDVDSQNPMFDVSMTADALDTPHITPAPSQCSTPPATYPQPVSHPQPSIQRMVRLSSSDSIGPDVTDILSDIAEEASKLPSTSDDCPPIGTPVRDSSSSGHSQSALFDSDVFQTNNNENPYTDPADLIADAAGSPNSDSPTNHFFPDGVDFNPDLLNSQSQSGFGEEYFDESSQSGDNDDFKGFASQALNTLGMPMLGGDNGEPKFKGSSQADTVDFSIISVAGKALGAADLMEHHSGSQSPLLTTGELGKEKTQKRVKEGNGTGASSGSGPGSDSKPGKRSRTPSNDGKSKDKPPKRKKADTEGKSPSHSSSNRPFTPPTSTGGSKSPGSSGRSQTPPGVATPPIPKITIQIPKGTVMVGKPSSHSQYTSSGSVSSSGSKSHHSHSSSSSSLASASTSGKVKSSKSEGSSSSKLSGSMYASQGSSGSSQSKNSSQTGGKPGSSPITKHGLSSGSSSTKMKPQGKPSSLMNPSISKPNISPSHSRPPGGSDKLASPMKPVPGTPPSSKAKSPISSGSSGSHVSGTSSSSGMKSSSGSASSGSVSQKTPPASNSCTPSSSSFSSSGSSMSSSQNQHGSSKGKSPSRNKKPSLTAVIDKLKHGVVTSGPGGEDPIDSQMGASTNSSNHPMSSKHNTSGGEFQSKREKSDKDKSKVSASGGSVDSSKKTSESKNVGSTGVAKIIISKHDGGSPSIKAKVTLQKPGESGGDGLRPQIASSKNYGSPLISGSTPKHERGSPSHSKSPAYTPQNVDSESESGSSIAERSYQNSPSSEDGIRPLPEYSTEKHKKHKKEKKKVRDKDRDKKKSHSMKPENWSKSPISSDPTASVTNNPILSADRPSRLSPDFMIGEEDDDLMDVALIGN

[2] = biological target: T1, MED23 (Mus musculus (endogenous in CH12 cells), UniProt Q80YQ2 1-1367)
T1 sequence (looked up): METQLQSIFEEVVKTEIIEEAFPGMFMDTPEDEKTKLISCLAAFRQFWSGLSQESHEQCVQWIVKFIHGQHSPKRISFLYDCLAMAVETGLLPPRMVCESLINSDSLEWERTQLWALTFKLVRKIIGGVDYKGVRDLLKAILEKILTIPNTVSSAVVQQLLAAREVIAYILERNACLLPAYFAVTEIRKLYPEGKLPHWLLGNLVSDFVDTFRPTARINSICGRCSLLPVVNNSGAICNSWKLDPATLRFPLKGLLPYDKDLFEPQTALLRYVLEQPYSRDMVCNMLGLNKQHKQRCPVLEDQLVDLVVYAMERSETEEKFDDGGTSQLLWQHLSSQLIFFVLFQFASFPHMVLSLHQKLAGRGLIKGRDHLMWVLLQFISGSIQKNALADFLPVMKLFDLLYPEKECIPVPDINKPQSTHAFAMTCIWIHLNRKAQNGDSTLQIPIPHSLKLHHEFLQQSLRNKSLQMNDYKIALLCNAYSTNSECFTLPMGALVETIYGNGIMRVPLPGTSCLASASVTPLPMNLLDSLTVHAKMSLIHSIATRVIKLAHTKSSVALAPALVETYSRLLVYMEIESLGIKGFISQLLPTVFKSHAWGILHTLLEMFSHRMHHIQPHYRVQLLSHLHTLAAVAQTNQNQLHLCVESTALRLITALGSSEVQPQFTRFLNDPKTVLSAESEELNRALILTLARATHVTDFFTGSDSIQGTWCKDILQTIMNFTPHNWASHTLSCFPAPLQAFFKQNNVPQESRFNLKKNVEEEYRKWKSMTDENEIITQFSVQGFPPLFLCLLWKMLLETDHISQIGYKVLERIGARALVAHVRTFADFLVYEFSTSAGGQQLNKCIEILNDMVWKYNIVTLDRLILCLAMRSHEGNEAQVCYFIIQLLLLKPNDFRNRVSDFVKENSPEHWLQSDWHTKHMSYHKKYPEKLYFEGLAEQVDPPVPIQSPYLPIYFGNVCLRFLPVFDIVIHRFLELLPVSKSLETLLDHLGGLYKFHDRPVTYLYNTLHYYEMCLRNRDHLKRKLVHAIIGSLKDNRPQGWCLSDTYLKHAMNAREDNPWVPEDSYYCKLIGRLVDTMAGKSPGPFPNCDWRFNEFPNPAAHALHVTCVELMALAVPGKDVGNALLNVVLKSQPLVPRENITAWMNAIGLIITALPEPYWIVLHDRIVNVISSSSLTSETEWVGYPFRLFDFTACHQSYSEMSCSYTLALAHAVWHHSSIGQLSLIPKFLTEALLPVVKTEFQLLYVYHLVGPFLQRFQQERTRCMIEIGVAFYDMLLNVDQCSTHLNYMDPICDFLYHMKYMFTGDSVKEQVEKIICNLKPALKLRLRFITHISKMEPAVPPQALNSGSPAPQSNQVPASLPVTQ

[3] = biological target: B1
[4] = biological target: T2, MED27 (Mus musculus (endogenous in CH12 cells), UniProt Q9DB40 1-311)
T2 sequence (looked up): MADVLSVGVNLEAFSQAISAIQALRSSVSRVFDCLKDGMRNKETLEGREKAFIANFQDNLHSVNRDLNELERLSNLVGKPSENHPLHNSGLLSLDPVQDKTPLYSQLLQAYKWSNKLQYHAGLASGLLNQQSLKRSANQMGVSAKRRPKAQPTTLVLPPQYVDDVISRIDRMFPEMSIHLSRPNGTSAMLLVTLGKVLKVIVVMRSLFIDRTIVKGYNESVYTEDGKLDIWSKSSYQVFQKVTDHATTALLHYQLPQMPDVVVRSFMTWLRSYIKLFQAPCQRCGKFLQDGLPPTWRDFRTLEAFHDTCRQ

[5] = biological target: T3, MED17 (Mus musculus (endogenous in CH12 cells), UniProt Q8VCD5 1-649)
T3 sequence (looked up): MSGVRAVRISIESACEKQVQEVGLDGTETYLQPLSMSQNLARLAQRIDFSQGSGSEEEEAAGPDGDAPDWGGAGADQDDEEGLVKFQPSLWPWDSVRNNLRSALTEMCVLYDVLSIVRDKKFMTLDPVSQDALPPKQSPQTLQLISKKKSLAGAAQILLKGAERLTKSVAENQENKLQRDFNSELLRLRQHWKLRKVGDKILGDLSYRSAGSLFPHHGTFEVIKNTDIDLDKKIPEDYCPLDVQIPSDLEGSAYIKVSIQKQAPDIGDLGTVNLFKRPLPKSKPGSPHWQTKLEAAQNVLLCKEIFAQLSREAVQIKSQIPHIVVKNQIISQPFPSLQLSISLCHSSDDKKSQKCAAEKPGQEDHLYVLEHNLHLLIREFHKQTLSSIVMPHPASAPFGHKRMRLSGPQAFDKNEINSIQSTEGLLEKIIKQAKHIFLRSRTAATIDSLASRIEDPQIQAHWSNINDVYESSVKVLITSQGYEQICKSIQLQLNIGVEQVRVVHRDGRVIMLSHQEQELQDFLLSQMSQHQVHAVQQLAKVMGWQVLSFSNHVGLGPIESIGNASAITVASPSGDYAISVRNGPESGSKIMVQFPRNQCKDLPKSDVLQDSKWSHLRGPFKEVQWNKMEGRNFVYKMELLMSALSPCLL

## B1
[1]
  binding result: binds

## B2
[2]
  binding result: binds
[3]
  binding result: binds

## B3
[4]
  binding result: binds
[5]
  binding result: binds

## B4
[1]
  binding result: binds
